Data published in the DeepSol protein solubility set.

Test: soluble on expression in E. coli; label from the status in PepcDB or PDB records

Sequence | soluble on expression in E. coli
MSLSRSFDTAPLGGRLNLTVADAEVFRNFLPVGQTVKGSLNAAVTLGGSIADPHLGGSINGDKLYYRNQTQGIILDNGSLRSHIAGRKWVIDSLKFRHEGTAELSGTVGMENSGPDVDIGAVFDKYRILSRPNRRLTVSGNTRLRYSPQKGISVTGMIKTDQGLFGSQKSSMPSVGDDVVVLGEVKKEAAAPLPVNMNLTLDLNDGIRFAGYGADVTIGGKLTLTAQSGGSVRGVGTVRVIKGRYKAYGQDLDITKGTVSFVGPLNDPNLNIRAERRLSPVGAGVEILGSLNSPRITLTANEPMSEKDKLSWLILNRAGSGSSGDNAALSAAAGALLAGQINDRIGLVDDLGFTSKRSRNAQTGELNPAEQVLTVGKQLTGKLYIGYEYSISSAEQSVKLIYRLTRAIQAVARIGSRSSGGELTYTIRFDRFSGSDEGHHHHHH | not soluble
MAHHHHHHMDMNFGFCNDAFFEQGNRSTDKEDIEELKKGESNEITKKGNNELGEEKELPKELCVPVTIKLLLSKMMSHEEFKIHDFQISGIIVFGKVCRIKELASAIIFEICDYTGNIEAKYNKDAKNEKVKDHIEGIKVNDHIKVVGVVYSPESKTEQIQISISYINKVEDWVSYFSYFTSDVIYCYLKLLKLKNIYTPNGVNNEDKPWSHVTLDTYYNQLDDIDTDIIKYLHTTSEKYANQQDIFEHLKKYHSEMNIKKSLTKLIEQYDLAQYEDIISIP | not soluble
MNIGSAIREIRQRRGITIAQICEGTGLSKGFMSQVENNKTSPSISTLETISNFLNVPLPYLLLEQKDRLKIVKKEERKYSVYGKDEQRIEHVAEQGGLRLSLVEIPTGFPKENSPNAHEGEECHLVLRGKLEVQHGEDIAIVEEGDSFSWNACVPHIVRNIGEETALLLISSYAENRQRVY | not soluble
MSLMKCLLVSSVEGYSGKSGIIIALGLKLREMGYEVGYFKALGVNTVKVGDRAVEEDSLITAKILGVEEDVCPVVLDRPYIDFATSVDPVVLRKAVLDRFTEVSEGKDVVIVEGSQNYRTGVAVGIDDASVAKMLSAKVLLVGKYVNDFVVDEVLAAKSAFGTMLEKVVFNQVSGYKMSYIEGIARKVLNEAGLDIVGAIPRNPVLAGLSVEEIREAVSGEYLIEPREEKMVEQVVIGAMSPQSALRYLREARNAALVTGGDRSDLLLTALEMPNVRCLILTGNLEPVQLVLTKAEERGVPVILTGHDTLTAVSRLESVFGRTRIRGEPKVGIMRELFESHVNVKTIIEYLGLDEGHHHHHH | soluble
MAFAIASALTSTLTLSTSRVQNPTQRRPHVASTSSTGGRLMRERLVVVRAGKEVSSVCEPLPPDRPLWFPGSSPPEWLDGSLPGDFGFDPLGLGSDPDTLKWFAQAELIHSRWAMLAVTGIIIPECLERLGFIENFSWYDAGSREYFADSTTLFVAQMVLMGWAEGRRWADLIKPGSVDIEPKYPHKVNPKPDVGYPGGLWFDFMMWGRGSPEPVMVLRTKEIKNGRLAMLAFLGFCFQATYTSQDPIENLMAHLADPGHCNVFSAFTSH | soluble
MSLNCFISSYVRGNFYNRGRISAESLRASDDLIFLNVRPNKDGSLSFENPRIFENGKGVTSWEELIKSVRADVKGTKTKLRLGAASGEWKAMVADEAARVAFAKNIKKILEKNKLDGIDLDFEWAETEKEYEDYSLAILKMREVLGDKYVFSVSLHPVCYKISKEAIAAVDFISYQCYGPSPVRFPMEKYCSDIQMALAYGIPKEKLVAGVPFYGVTKDGSKKTEAYFSFVQDGLITGPAQNEVTYKGDVYVFDGQNNIRAKTRYAMDQQLKGMMSWDLATDMPLNDSRSLFKTMVEELGREGHHHHHH | soluble
MPLTLNQLAELSGRASEHVLAEEVEETGTPAEEILARLRERLAVMRDSVRRGLASDAPSVAGLVGKNAKTLWEAPDPLQDPLLKRVQAYAMAVNEENARMGRIVAAPTAGSAGTLPGALLGVADHLGIPDEELLMPLVLAGGVAKMIGRVIHIAGASGGCQAEIGSSAAMAAAAVTELLGGTPEACAHAAALALQNTLGLVCDPVGGFVEVPCVMRNGFYAVHAVSAASMALAGIRSVIPPDEVVLAMAGIGRLLPLELKETGLGGLADTPTGRRLAEEALKKT | soluble
MPLPTELARHLTEEKIAFVQRSGLRAEVLEPGYVRLRMPGAGNENHIGSMYAGALFTLAELPGGALFLTSFDSARFYPIVKEMTLRFRRPAKGDIRVEARLDAERIRQLETEAGERGKAEYSLELQLTDEQGEVVAESAALYQLRSHARP | soluble
MGSDKIHHHHHHMRILISPPMRFGKEFLGGMRRTLEVYSRMGEEVYLCVDERTLPQVDPEISPLLSKFHLVSSSSTDKKTYLKGFLNCLKYARKVDVLISYSEYSLSVYYTWLLSLFSRKPFIVVVHHVTEEIRGSKFLRTVIARSKGIICLDNPEVYEELKSLFPNKVILTSTNGVSVEDYYTSEEKICDGIFVGNYGERKGSRYLFQIWDKVNEKIDAKLCIIGKGWSEIPKNSVYYGFVTEREKIDLLAKSKVFVFPSLYEGFALAVTEALSAYLPVVTWDLKWSERYPVAIRVTYPDISSFAEEVVKLLKDEKLRKSIGEKSRELAKTLNWEKAAEMEKKAIYKIMESK | not soluble
MGHHHHHHSHMPMYQVKPYHGGGAPLRVELPTCMYRLPNVHGRSYGPAPGAGHVQEESNLSLQALESRQDDILKRLYELKAAVDGLSKMIQTPDADLDVTNIIQADEPTTLTTNALDLNSVLGKDYGALKDIVINANPGSPPLSLLVLHRLLCEHFRVLSTVHTHSSVKSVPENLLKCFGEQNKKQPRQDYQLGFTLIWKNVPKTQMKFSIQTMCPIEGEGNIARFLFSLFGQKHNAVNATLIDSWVDIAIFQLKEGSSKEKAAVFRSMNSALGKSPWLAGNELTVADVVLWSVLQQIGGCSVTVPANVQRWMRSCENLAPFNTALKLLK | not soluble
MAVGEVMRMEIPAGGDLTVTTPELHVLAVDDSIVDRKVIERLLRISSCKVTTVESGTRALQYLGLDGGKGASNLKDLKVNLIVTDYSMPGLSGYDLLKKIKESSAFREVPVVIMSSENILPRIQECLKEGAEEFLLKPVKLADVKRIKQLIMRNEAEECKILSHSNKRKLQEDSDTSSSSHDDTSIKDSSCSKRMKSESENLFSLL | not soluble
LTRFFGDFFLDIEVKLADVAMMYGLNLGYELQDKTLSNIVEEQLGSTPVLGDQFEWQGLQWVIADVVDHQVTKVGLRLPNEEEEGEEED | not soluble
MGSDKIHHHHHHMAEINYQLIDFDNRGDLGLKNEPFELFGRMKIDRLNNNWSYEVEIFTHKRTMAFPDERYHLQEINQNGFALGAYDDSNCVGLAIYQKHWNKYLYLKDLKVNRDHRKLGIGNQLIKEGLRRAVQLGYKGVYAVCQDNNLAACQFYLKIGFQIGGFNDFDYNYTTQSGKSDIYFYLDKNSAR | not soluble
MSLMSKPQITIKDIARELGVSPSTVSRALKDNPDISQETRDAIHKYAREHNYKPNVLALNLRTSRSNTIGVIIPQLVHHFFSCVLSGIERTAAEAGYNILVAQSNEEYEREVKIVHSFLAARVCGVITSLAKDTSRYDHYQELLDNNIPIVFYDRICTGINTERVVVDDYAGSFAAVEYMIQTGCKRIFFYSAAPHLEISKNRRNGYMDAMKKYRIPVDQSMIKLCDSREKAIAITPALLERPDHPDGFFAINDETASGILYSCKLTGRKVPDEVSICGFTDGAIAQSTDPKLTTVEQHGEEVGKSTIRLLIDKLEGNDEGKSGNKIVRTNLVVRGTTKEGHHHHHH | soluble
MSLKNPRIVVVDDSPFSVSILTDMLQRNGFEVVGSASNLNEVKKAVTELNPNLVTMDMVLADTDGLECTKIIHQINPEIRVIAISSMMDDEILAKAKKNNISAYIQKPIDEEELVLAINRISSDDDLYSELKDRYFDIFKQAFSYAFNKFIKEVPNFVEKDEHTVEHVEKGISIVMGIIGKYCGRLILNISYETADKFVESVLNRPAKDLQEILNVVAEFANIVGGNACSMINRENKIFGMRIAPPTTIYGDSINISRNSLDTMNFFTVNVTAGEISVNIGFNKGAVEWMSNEGHHHHHH | soluble
MSAPRLPVTVLTGFLGAGKTTLLSKLLENNKQRRLAILVNEFGEVSIDGGLLRDGENQGVEIHDLANGLVAYDDDADFLPTMLALWQRRQQIDHVLIETSGLALPSAVMAQLQSEALAPYFVLDATLAVVDTPLLLAGHFAPAGDGGKTDAVAALFDQQLGHADIVVLNKIDALSADQLLAAEEAVRKQAPSIRFIELAYEAKLDTRLTLGLHLHEASPAAHRHYGPVASMPGLAMRPLANQTLLDGHSHGGQAAHSHGLATHKHFHEQDPGWQSFMIRSKEPQCADKLAAALQAIAREEPLLRIKGFAACADSPGRLLAQGVRSRIELSRDDTLAAPRQAQLVFIGYHPSRPRVVALLRDITGAHWSLEHHHHHH | not soluble
MGSDKIHHHHHHMITIDALGQVCPIPVIRAKKALEGLGEAGGVVAVLVDNDISRQNLQKMAEGMGYQSEYQEKDNGVIEVTIVAGEGCAVETSGTPADSGLVVAIGRNTMGEGSEELGRILLKGFIYSLRELTPPPARLLFFNSGAYLTSKDSNSIEDLKAMAAQGTIIQTCGTCINYYGITEQLAVGQVANMYDIVTAMAEAKRLINI | not soluble
MSLVVEQVKPNTGQEVQQIGQLQATKVKLPSTTKVALTKETQYLRNQVIASPVALFEIPADRGQMTLTITSEISDSVFYPHVMIVDAQGQVVESYEEVTFEYRKPRLHLGNRLVAELDFYPPQGYKSLFVLVYTKQQDLKGVTYVAHPARIDAEARGNYLPEVKDIPVPHTLTGTIELDVSGPSFLSFVRSEDRQTTTSTDAAKTQIQVQPDTQTYYFSSIERAVQANDLPKALSLLDEAKALGIEGAQEVFVKAVNARKEGHHHHHH | soluble
MSLNRAFRREQYARMVALSEPLIADYLGVRLPEPVSRIFVFDRREWLEANIVSFSQLFRPIEEMYEKNGGGRGALGVLMNDVSSKLLGVQIGGLLGYLAQRVLGQYDLSLLSAEATGGSLYFVEPNIARVQQQLGLSDEDFRLWITLHEMTHAFEFEAYPWVRTYFRELLEQNFALVSGQMLSSGNSLVDMLMRLLQGEGHHHHHH | not soluble
MGSDKIHHHHHHMRNELPPENAYRILESGPIVLVSTRGADGRANLMTMGFHMMMQHEPPLVGAIIGPWDYSHQALSETGECVLAVPTVDLAETVVDIGNCSGDALDKFGHFGLTPVPAQTVDAPLVRQCWANLECRVVDDGWARRYNLWVLEVQRIWIDTARKETRLIHHQGDGRFSVDGDTLDLGERMTKWRHLMG | not soluble
MSLLIKNGTIVNDDAIFKSDVLVLDGRIVEIAPSIQPTPGLEVVDATDRLVIPGGIDPHTHMQLPFMGEIAKDDFHRGTEAAVAGGTTMIIDFVIPTKGESLLVAYDRWRGWADPKVVCDYGLSMAITSWGPEIAKEMEIVTGAEYGINSFKFFLAYAGVFMVRDEEFYQGMIQCAKLRALARVHAENGSVIAERCEHLLSSGITGPEGHTQSRPEELEAEATFRACTMASQANCPLYVVHVMSKGAAAAIAHHRKKGAVVFGEPIAAGLATDGSHYYNEDWLHAARYVMSPPLSRDPSTPSALMKLLAAGELHLTATDNCTFDCQQKSLGKDDFTKIPNGVNGVEDRMSVVWDKGVHAGIIDPMRFVAVTSTMAAKIFNCYPQKGRIAVGSDADIVIWNANATRTISKDTHHHAIDFNIFEGMQVHGVPEITISRGRTVWANGQLKTVQGSGQFIPLAPDSQIVFSAVDNRKKAMEPVKIDRIPYEPSALQTPDANANIVVKAPVRAAIPPGGASSIQF | not soluble
DLHNMLLTRNQELDVAYQTIRQDLESAGDLMRQLLPVEQQIGATKLSYSYLPCSQLGGDMLGYAALDEQHVAFYVFDVSGHGISSALMSFSIQKTLSRSCGPESVTTDLVEGEYVVSEPNVVVERLNLRYQQTPDSQLYFTIVYAVLNTQTGKLRYCTAGHPKFLWRHQSEATIDMVGDENFIVGALAPMQYKGGEITLEPNDSIWCFSDGVVEARYENEFFSVNRLIANVQSVSGLPFEAQVSSVVESIKRWQVKEELDDDLTLLQLQWFGPNTSTCEGEDD | not soluble
